Assay results: patent EP4536686B1 (GENETHON, dated 2025)
Where a chain is given by its changes, count along the chain named.

B1: AAV_Cap9rh74_VR4-4um9.Nat (other)
chain: MAADGYLPDWLEDNLSEGIREWWALKPGAPQPKANQQHQDNARGLVLPGYKYLGPGNGLDKGEPVNAADAAALEHDKAYDQQLKAGDNPYLKYNHADAEFQERLKEDTSFGGNLGRAVFQAKKRLLEPLGLVEEAAKTAPGKKRPVEQSPQEPDSSAGIGKSGAQPAKKRLNFGQTGDTESVPDPQPIGEPPAAPSGVGSLTMASGGGAPVADNNEGADGVGSSSGNWHCDSQWLGDRVITTSTRTWALPTYNNHLYKQISNSTSGGSSNDNAYFGYSTPWGYFDFNRFHCHFSPRDWQRLINNNWGFRPKRLNFKLFNIQVKEVTDNNGVKTIANNLTSTVQVFTDSDYQLPYVLGSAHEGCLPPFPADVFMIPQYGYLTLNDGSQAVGRSSFYCLEYFPSQMLRTGNNFQFSYEFENVPFHSSYAHSQSLDRLMNPLIDQYLYYLSRTQSTDGRGDLGRLGPQQLLFSQAGPNNMSAQAKNWLPGPCYRQQRVSTTLSQNNNSNFAWTGATKYHLNGRDSLVNPGVAMATHKDDEERFFPSSGVLMFGKQGAGKDNVDYSSVMLTSEEEIKTTNPVATEQYGVVADNLQQQNAAPIVGAVNSQGALPGMVWQNRDVYLQGPIWAKIPHTDGNFHPSPLMGGFGMKHPPPQILIKNTPVPADPPTAFNKDKLNSFITQYSTGQVSVEIEWELQKENSKRWNPEIQYTSNYYKSNNVEFAVNTEGVYSEPRPIGTRYLTRNL
notes: Tested as a whole recombinant AAV vector particle packaging CMV-GFP/Luc; also called Cap9rh74_VR4-4um9(LICA.01)
B2: AAV_Cap9rh74_VR4-5ffo.Nat (other)
chain: B1 chain with T453E, D454P, G455R, G460A, R461T, L462I, P464S
notes: Tested as a whole recombinant AAV vector particle packaging CMV-GFP/Luc

Molecular target: T1, integrin heterodimer αVβ6 (ITGAV-B6) (human, UniProt P06756 31-1048; P18564 22-788)
T1 construct: whole, on cells; Species is read from the 'h' prefix of hITGAV and hITGB6; also called ITGAV-B6 heterodimers; hITGAV and hITGB6
T1 sequence (P06756 31-1048, chain 1 of 2): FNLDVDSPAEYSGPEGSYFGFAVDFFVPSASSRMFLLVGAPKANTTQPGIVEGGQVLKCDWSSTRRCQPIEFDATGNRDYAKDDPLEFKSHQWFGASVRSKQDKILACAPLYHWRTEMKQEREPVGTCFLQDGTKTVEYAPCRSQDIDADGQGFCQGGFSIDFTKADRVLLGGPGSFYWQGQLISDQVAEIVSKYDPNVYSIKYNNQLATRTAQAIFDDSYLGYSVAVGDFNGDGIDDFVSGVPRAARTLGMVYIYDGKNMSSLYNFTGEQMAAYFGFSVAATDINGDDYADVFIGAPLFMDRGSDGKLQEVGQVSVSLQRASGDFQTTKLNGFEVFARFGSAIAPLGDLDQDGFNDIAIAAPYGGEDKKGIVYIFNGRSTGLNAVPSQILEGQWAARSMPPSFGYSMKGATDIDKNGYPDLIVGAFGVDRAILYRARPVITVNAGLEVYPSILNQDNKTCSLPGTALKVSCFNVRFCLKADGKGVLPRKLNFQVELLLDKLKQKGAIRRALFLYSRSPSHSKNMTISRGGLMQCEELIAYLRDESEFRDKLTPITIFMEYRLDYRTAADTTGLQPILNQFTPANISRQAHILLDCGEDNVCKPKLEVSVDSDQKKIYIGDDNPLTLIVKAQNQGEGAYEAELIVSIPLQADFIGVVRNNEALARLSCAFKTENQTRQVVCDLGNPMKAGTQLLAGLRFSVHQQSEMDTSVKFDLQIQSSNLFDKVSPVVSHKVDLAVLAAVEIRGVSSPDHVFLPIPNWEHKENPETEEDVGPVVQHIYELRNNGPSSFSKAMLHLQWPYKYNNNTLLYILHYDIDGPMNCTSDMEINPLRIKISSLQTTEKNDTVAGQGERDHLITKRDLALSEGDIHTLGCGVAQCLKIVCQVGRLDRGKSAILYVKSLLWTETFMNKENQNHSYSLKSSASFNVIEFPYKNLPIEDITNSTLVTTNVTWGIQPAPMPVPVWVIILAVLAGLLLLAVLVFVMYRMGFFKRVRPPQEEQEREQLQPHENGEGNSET
T1 sequence (P18564 22-788, chain 2 of 2): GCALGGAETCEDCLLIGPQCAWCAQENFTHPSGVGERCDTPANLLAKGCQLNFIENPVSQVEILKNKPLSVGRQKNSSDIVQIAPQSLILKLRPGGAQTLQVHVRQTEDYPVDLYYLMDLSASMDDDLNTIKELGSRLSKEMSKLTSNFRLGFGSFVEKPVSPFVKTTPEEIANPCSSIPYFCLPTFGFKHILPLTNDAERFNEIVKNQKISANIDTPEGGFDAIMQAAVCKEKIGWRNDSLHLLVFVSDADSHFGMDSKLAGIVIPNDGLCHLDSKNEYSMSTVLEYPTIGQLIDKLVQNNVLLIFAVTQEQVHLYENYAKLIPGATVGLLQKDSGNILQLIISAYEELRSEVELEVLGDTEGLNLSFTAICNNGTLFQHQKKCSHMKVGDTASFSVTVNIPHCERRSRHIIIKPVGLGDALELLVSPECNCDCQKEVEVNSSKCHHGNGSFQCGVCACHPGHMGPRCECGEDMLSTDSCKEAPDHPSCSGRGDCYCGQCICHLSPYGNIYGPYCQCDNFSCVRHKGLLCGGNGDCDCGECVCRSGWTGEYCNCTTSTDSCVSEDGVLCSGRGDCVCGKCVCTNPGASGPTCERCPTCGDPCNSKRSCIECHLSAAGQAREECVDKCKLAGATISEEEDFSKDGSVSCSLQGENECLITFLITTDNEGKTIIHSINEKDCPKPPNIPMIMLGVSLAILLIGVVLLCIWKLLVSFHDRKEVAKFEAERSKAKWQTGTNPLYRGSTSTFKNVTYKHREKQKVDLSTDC
Test: concluding sentence, resting on the infection and luciferase assay in 293_ITGAV-B6 cells; no direct binding assay

Binder	binding result
B1	binds
B2	binds
